Experiment: soluble on expression in E. coli; label from the status in PepcDB or PDB records

Sequence | soluble on expression in E. coli
MSLDKVYPIGSQYTINGFIIGDDTTENGYPITAKIEVVDTKNTISPKLIAHTIPLNNVKINGNNRLTSNRDLAIKEIISWDVSQQLYNYRDTYGLSTEGYTRSDGWDSPETKLKGHGSGHYMSALALAYAAATNPSHKEILRRNITRMVNELRECQERTFVWSEELGRYLEARDFAPEEELKKMKGTWEAFDEHKTKWATYGYGYLNAIPPHHPALIEMYRAYNNSDWVWAPYYSIHKQLAGLIDIATYMDDKSIADKALLIAKDMGLWVWNRMHYRTYVKKDGTQEERRTHPGNRYEMWNMYIAGEVGGMGESLARLSEMVSAPEEKARLIEASNCFDSPAFYEPLSKNIDDIRNRHANQHIPMIIGALRSYLSNNDTFYYHVSHNFWNLIQGRYRYSTGGVGNGEMFRQPYTQIVSMAMNGVSEGESHSNPHINETCCAYNLLKLTKDLNCFNPDDARYMDYYERTLYNQIIGSLHPEHYQTTYQYAVGLNASKPWGNETPQSTCCGGTGSENHVKYQEATYFVSDNTLWVALYMPTTLHWEEKNITLQQECLWPAKSSTIKVTAGEARFAMKLRVPYWATDGFDVKLNGISIATHYQPCSYAVIPTRQWKENDIVEITMPFTKHIDYGPDKLPAEIASKDGHQLETAWVGTLMHGPFAMTATDITNWTEATLNIDSRLASITVVEPNGPQTGTTGNLYTLMQGGRTFQPDYYRHDHTTHYFRINHIKDPTVELKMALSAKLRETTAFSKSHYTKASFAKLTTAIQEGEKLMKISPLTETTISTCVDNIDKAIESLVASRLDKSNLEASIHIAKKCNPDLYTTDSFKTLQATLESAHEVMDNIDLQTVIDKQTLSLQDATASLVLANNVDKTELKELLNIAMERQTNQEKWNALAVKIPEFAPWAHFGFTRLKRTLEHAQNVYFNKDKNYSQGEVNAIVASLNTVINTMRPGNLPEMEDLRPLSALLRRVGTIDDSTDPTLKDAVAFTEMVIKYVADGSGTHDMIETAISRLKSAAGEGHHHHHH | soluble
MQQNTSLYDSLNVTAAASTSEIKKAYRNAALKYHPDKNNHTEESKRKFQEICQAYEILKDNRLRALYDQYGTTDEVLIQEQQAQAQRQQAGPFSSSSNFDTEAMSFPDLSPGDLFAQFFNSSATPSSNGSKSSFNFSFNNSSTPSFSFVNGSGVNNLYSSSAKYNSNDEDHHLDRGPDIKHNLKCTLKELYMGKTAKLGLNRTRICSVCDGHGGLKKCTCKTCKGQGIQTQTRRMGPLVQSWSQTCADCGGAGVFVKNKDICQQCQGLGFIKERKILQVTVQPGSCHNQLIVLTGEGDEVISTKGGGHEKVIPGDVVITILRLKDPNFQVINYSNLICKKCKIDFMTSLCGGVVYIEGHPSGKLIKLDIIPGEILKPGCFKTVEDMGMPKFINGVRSGFGHLYVKFDVTYPERLEPENAKKIQNILANDKYIKAERSTMETADSDCYCDLEKSYDSVEEHVLSSFEAPNLNNEVIEDDDLGDLINERDSRKRNNRRFDESNINNNNETKRNKYSSPVSGFYDHDINGY | not soluble
GPGSMRGKTKKRKIYKRFSSLPKTETSTLPTVHSHTTCIRVQHVSHHLHAYICTLVSGMSHHRMWPSPITPSRTDATTTTTKTTTKNDTYSPHKKNTNTPHAKGRSYIVNLCHSFYSPTGDETVIWVTNVVRSCAAKYNYIPHILHSHETLVKRRCNENAANEKCLIRC | not soluble
MGSDKIHHHHHHMLELRHLRTLIALRDAGSLVEAAERVHLTQSALSHQIKDLEERLGSPLFLRKTRPVTFTRAGERLLALAEQILPQIRMAERDLARLAGHEQGRLHMAIECHSCFQWLMPTIDHFRDHWPEVEVDIPSGYSFDALPSLARESLDLVITADPQPLAGIHYEPLFRYEGLLAVGKQHPLARRDWVTPEELARETLITYPVEHTRLDVFTQFLTPAGFTPAEVRTAELTIMMMQLVASGRGVCALPNWALTEYLERGYVRALHLGEQGVWSTLFAAIREESRDAPWMEDFLRTARETSFAVLAGIKPA | not soluble
MASKLRRYIMNTTSLSLTPLLRHSVGFERFNDLFESMRNADDSTYAYPAYDIEKHGEDSYTITMAVPGFQESDLNIMVQNDQLTVSGRIQEKETKESEYLHRSIVTRAFEQTFRLADHMQVTGAEIKNGLLSIGLIREIPEEAKPRIIPIKSISDQESNKKGKTLEPESKKKISN | not soluble
MSLNLTFKKKSFFFKLSSKVDNSNTTYNYKSGWIIKLKNIEKGVGFGEVNPLRKHDLDACQIQLNQIPKYVNSKNISELIKNFHPCIQSAINSALAEIERKINFQENYYFNEIDQTAILLDPHNALKELIILKGNKLLNKKSLTIKWKVGIQDNFSEEKTLIEILNHLKSNIKLRIDANGSWERETANRWVDILKDIENIDWLEQPLSKDDIEGLKELNKKMPIALDESLLKYPYLINEWDGWQIRRPSQERNPMQLLKELKDKKGFRSLSTSFETGIGRRWLFHLSSLQLLGLTPKVPGLALKKNPNSFLFQNDAQKIWDQLEGHHHHHH | not soluble
MNGNSTNNEQLQQELATTQDQVASIIESFVELGVSIYDFPGTPEATKGMITNLQRNVDRLYKLNVRSNDPQSSLSKVDIPLEVVQYIEDGRNPDIYTREFVEAIRRSNQYQRGKMHGLKQLRDSLADKIVDEFPELKEPVEDIIKRTSPIDNVSNTH | not soluble
MSLGAALSDTNYAVIYDLHSHTTASDGLLTPETLVHRAVEMRVGTLAITDHDTTAAIPAAREEISRSGLALNLIPGVEISTVWENHEIHIVGLNIDIAHPAMRDFLAQQTERRQARGRLIAERLEKAHIPGAWEGALRLANGGAVTRGHFARFLVECGKAATMADVFKKYLARGKTGYVPPQWCTIEQAIDVIHHSGGKAVLAHPGRYDLSAKWLKRLVAHFADHHGDAMEVAQCQQSPNERTQLATLARQHHLWASLGSDFHQPCPWIELGRKLWLPAGVEGVWQTWEQPQISEGHHHHHH | soluble
MGSDKIHHHHHHMKPRKQDEKILSDQYSYFEPIISDSCDIKFDGDKRRIGSIFISHEEICFIRKEEDYIFKISLSDVVDYNTVVTIWKNQASLTLNDNRKITFYFVTNSPLTGFISILKTYMQLSRNKETIIPDDNLLINDDDEQTKVEIFDVVGLNYEGRRKELKKLIKKMKTNDAFFFLYSDLKGNELKEELLYEDKVYEIPDYEVIPGVFLQKEPDNPYDENAIKVMISNEYSEFHVGYVPREYASRLVNYIEDTVSCNAYINGGKYKTLDYLEEKIVTKESDYGLRIHVEYKV | not soluble
MYCIEEKIEKALGIKEASLVLKNCNIVNVFSSEIIRGDLAIDGDTIIGIGKYKGKTEIDLSNKYVAPGFIDSHVHIESSMVSPKEFARAVISRGTTTIIVDPHEIANVCGMDGIKYMMEETKNMPLDVFFMLSSCVPLEHHHHHH | not soluble
MAEDYKLIDNEEKHRYEFQIDDKIAKIDYIKSNNGEIYLVHTEVPASLGGRGVGSQLAEKTLADIERQGLRLVPLCPFVAGYIHKHPEWKRIVMRGIHIK | not soluble
MAHHHHHHMNTFNYIRSPTGVHEVDGPPNDCVSTVRFSPSGCPYLLLGAASWDKTCRVWQVIHQPNAINIRSQPMTFAVSDAPILDMSFSADGRVFWGGCSKTATMWNLTTNQKIIVGSHDLPVSCIAHVSSNTGTEMLVTGSWDGRLRFWDLRQPMPIKEEILGEPVFGLDAQRSFPMAACVTGRKVHIFNLQTMMKTNELKPPPLLKFNLGCVACSPQKDGVVVGSSEGRLSFIPLQAEVGCTFKAHVLVEDNVLYMHQTNFCVISPRVPHMISGGGDGRIGCWDYKKRSIVGYGESETRLENRNKSISAGDISADGSLLAFARSYDWAMGKTGCIPNEPHSIHIRSAEWKSALS | not soluble
MGLSPSAPAVAVQASNASASPPSGCPMHEGKMKGCPVNTEPSGPTCEKKTYSVPAHQERAYEYVECPIRGTAAENKENLDPSNLMPPPNQTPAPDQPFALSTVREESSIPRADSEKKWVYPSEQMFWNAMLKKGWKWKDEDISQKDMYNIIRIHNQNNEQAWKEILKWEALHAAECPCGPSLIRFGGKAKEYSPRARIRSWMGYELPFDRHDWIINRCGTEVRYVIDYYDGGEVNKDYQFTILDVRPALDSLSAVWDRMKVAWWRWTS | soluble
MNIQAIDTRHGTANQHSFSNGNCLPYTGVPFGMNFYAPQTTDQKGSWWFHPEDRTFQGYRVTHQPSPWMGDFSHLLMTPVSGSLSELSLFHAQSSYRPEESLFSPVEINLTQLRYQITSQLIPSMYGGILTIDYQQKDNHLLLTLPGRYQVKQLDDHQVAVKVINYSGCEDPDFSFYFVLHFEQPLTKWFAPSSGLEHHHHHH | not soluble
GMHSNINTLIANHRAGHALDQAFYTDAEVFQTDLQEIFYKEWLFAIPACELDKPGSYVTHQVGNYNVIIVRGADNVIRAFHNACRHRGSVICKAKKGNNPKLVCPYHQWTYELDGRLLWARDMGPDFEPSRHGLKTVHCRELAGLIYICLADEAPDFERFAEVARPYLEVHDLSNAKVAHESSIVERGNWKLVWENNRECYHCGGNHPALCRTFPDDPSVTGIEGGETPSNLQAHFDRCEQAGMPSGFHLSGDGQFRVARMPLKEGAESYTMDGKTAVRRWLGRAAFADAGSLLKFHYPTTWNHFLSDHSIVFRVTPISPTETEVTTKWLVHKDAVEGVDYDLQRLTEVWIATNDEDREVVEFNQMGINSPAYEPGPYSPTQESGVLQFVEWYLSTLKRNSGPHAVAAE | soluble
MATRGPTPDKARMGLPDRWLHCPKTGTLINNLFFPFKTPLCKMYDNQIAERRYQFHPAEVFSHPHLHGKKIGLWIDLTNTDRYYFREEVTEHECIYHKMKMAGRGVSPTQEDTDNFIKLVQEFHKKYPDRVVGVHCTHGFNRTGFLIAAYLFQVEEYGLDAAIGEFAENRQKGIYKQDYIDDLFARYDPTEDDKILAPEKPDWEREMSIGMSTQIDNGRPSTSQQIPATNGNNNQNGNQLSGGGDNSKLFMDGLIRGVKVCEDEGKKSMLQAKIKNLCKYNKQGFPGLQPVSLSRGNINLLEQESYMVSWKADGMRYIIYINDGDVYAFDRDNEVFEIENLDFVTKNGAPLMETLVDTEVIIDKVEINGAMCDQPRMLIYDIMRFNSVNVMKEPFYKRFEIIKTEIIDMRTAAFKTGRLKHENQIMSVRRKDFYDLEATAKLFGPKFVQHVGHEIDGLIFQPKKTKYETGRCDKVLKWKPPSHNSVDFLLKVEKKCKEGMLPEWIGYLFVQNLSDPFGTMKATATLKKYHNKIIECTLLVDNQGRPKEWKFMRERTDKSLPNGLRTAENVVETMVNPVTETYLIEYVNHALRVLKRAAAAHRHHQIHQQQLHEGEPEARRQKL | not soluble
MGSDKIHHHHHHVQYLDKLVSGLAVELHVPEGDYEGNYKTHVDEIGKTRLSVYAPHYQGMIIPLQEGTLVEVTFWDDVASYSFMSSVLQRVATPIPMFVLKMPDSIRRVQRRNYVRVSASFPITYQVVEREGLGDLLKGNMLDLSGGGMRFQAKVKLDKGSILYANLELPCGIIGTPGRVCRVEPIEDTKYFSVSVDFYQISERDRDRIIRCVFDIQRDLRKKGLI | not soluble
MSLTEKTDQTLMLIDGHSMAFRAFFALPAENFSTSGGQATNAVYGFLSMLSTLLKDEQPTHVAVAFDVGRKTFRTDMFPAYKAQREATPPEFKGQVEILKEVLSTLGITTIEKIDFEADDVIATLSVAAKPLGFKTLIVTGDRDSFQLVNDTTTVLYPMKGVSVLHRFTPEAVEEKYGLTPRQYPEFAALRGDPSDNLPNIPGVGEKTATKWIAQYETLDNLLDHADEIKGKVGASLRERIEQVRMNRKLTEMVKDLELPLGPDDFEMKPVQVAEVAAKFDDLEFGTNLRERVLAVVKAEGSAAPVEEVEAEQVVVDTQSLAQWLPARAGQALALALAGVAKPAAGDTYALAIADTKRHAVLVDVADISAEDEKALATWLASEDPKMLHGAKAAYHMLAGRGFELHGVVHDTAIAAYLLRPGQRTYELADVYQRHLQRQLSTNDNGGQLTLLDAADDQSLVDDVIAILELSEELTKQLQEIQAFELYHDLEIPLSGILARMEAIGEGHHHHHH | soluble

Source: the DeepSol protein solubility set
